Results reported in US20240247080A1, “GLP1/GIP/NPY2 RECEPTOR TRIPLE AGONISTS” (Boehringer Ingelheim International GmbH, priority 2022, published 2024).
Changes are numbered by the printed parent chain. Starred links: 1 amine or outer side, 2 acyl side, 3 side chain; linkers in the order of their positions; H or OH if unused. Non-standard residues stand in square brackets, D forms with d. Groups on a side chain read outwards from the residue. No end group written: not given here. *: point of attachment. C18 diacid = O=C(O)CCCCCCCCCCCCCCCCC(=O)*; γGlu = O=C(O)[C@H](CCC(=O)[*:2])N[*:1]; AEEA = NCCOCCOCC(=O)O; Aib = CC(C)(N)C(=O)O

T1: human GIP receptor (human, UniProt P48546 22-466)
T1 sequence (looked up): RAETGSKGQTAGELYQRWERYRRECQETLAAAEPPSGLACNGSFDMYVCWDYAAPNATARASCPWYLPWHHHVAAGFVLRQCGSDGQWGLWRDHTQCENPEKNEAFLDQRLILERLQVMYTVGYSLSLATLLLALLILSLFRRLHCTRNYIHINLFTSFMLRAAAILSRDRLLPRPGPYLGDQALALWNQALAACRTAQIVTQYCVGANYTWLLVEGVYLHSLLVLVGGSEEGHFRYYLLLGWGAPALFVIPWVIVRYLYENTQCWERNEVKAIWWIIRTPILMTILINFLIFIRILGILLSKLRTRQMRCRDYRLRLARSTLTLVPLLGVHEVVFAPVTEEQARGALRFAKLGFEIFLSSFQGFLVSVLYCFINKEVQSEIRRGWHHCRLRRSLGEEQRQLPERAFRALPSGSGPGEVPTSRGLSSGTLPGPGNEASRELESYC

T2: human neuropeptide Y2 receptor (human, UniProt P49146 1-381)
T2 sequence (looked up): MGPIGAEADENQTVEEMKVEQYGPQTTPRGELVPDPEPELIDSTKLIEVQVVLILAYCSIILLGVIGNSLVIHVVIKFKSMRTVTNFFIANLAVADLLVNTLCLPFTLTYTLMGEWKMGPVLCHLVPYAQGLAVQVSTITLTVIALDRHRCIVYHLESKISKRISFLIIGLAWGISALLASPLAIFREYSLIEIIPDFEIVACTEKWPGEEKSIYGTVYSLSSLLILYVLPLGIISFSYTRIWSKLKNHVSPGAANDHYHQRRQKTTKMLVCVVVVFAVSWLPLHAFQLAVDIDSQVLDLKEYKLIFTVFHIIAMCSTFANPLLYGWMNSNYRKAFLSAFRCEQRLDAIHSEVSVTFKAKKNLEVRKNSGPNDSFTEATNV

B1: Compound 164 (peptide)
peptide: Y[Aib]EGTFTSDYSI[Aib]LEKQAQ[Aib]EFVQWLIKGGPSEGASLRHYYNWLTRQRY-NH2
modifications: not fully specified (residue 28)
B2: Compound 156 (peptide)
peptide: Y[Aib]EGTFTSDYSI[Aib]LEKQAE[Aib]AFVQWLIK([AEEA-AEEA-γGlu-γGlu-γGlu-γGlu-C18 diacid])GGPSEGASLRHYYNWLTRQRY-NH2
B3: Compound 145 (peptide)
peptide: Y[Aib]EGTFTSDYSI[Aib]LEKQAQ[Aib]EFVEWLIK([AEEA-AEEA-γGlu-γGlu-γGlu-γGlu-C18 diacid])GGPSSGASLRHYYNWLTRQRY-NH2
B4: Compound 161 (peptide)
peptide: Y[Aib]EGTFTSDYSI[Aib]LEKQAQ[Aib]AFVEWLIK([AEEA-AEEA-γGlu-γGlu-γGlu-γGlu-C18 diacid])GGPEEPASLRHYYNWLTRQRY-NH2
B5: Compound 149 (peptide)
peptide: YXEGTFTSDYSIXLEKQAQXAFVQWLIKGGPEEGASLRHYYNWLTRQRY
modifications: Aib at 2, 13, 20; K28 side chain: C18DA-gGlu-gGlu-gGlu-gGlu-gGlu-gGlu-eLys; C-terminal NH2
B6: Compound 153 (peptide)
peptide: B5 peptide with A21E, E32S
modifications: Aib at 2, 13, 20; K28 side chain: C18DA-gGlu-gGlu-gGlu-gGlu-gGlu-gGlu-eLys; C-terminal NH2
B7: Compound 162 (peptide)
peptide: B5 peptide
modifications: Aib at 2, 13, 20; K28 side chain: C18DA-gGlu-gGlu-gGlu-gGlu-gGlu-AHX; C-terminal NH2
B8: Compound 163 (peptide)
peptide: Y[Aib]EGTFTSDYSI[Aib]LEKQAQ[Aib]AFVEWLIK([AEEA-AEEA-γGlu-γGlu-γGlu-γGlu-C18 diacid])GGPESGASLRHYYNWLTRQRY-NH2
B9: Compound 157 (peptide)
peptide: Y[Aib]EGTFTSDYSI[Aib]LEKQAQ[Aib]EFVQWLIK([AEEA-AEEA-Glu-Glu-Glu-C18 diacid])GGPSEGASLRHYYNWLTRQRY-NH2
B10: Compound 146 (peptide)
peptide: Y[Aib]EGTFTSDYSI[Aib]LEKQAQ[Aib]AFVQWLIK([AEEA-AEEA-γGlu-γGlu-γGlu-γGlu-C18 diacid])GGPEEGASLRHYYNWLTRQRY-NH2

The binders below were run against T1, human GIP receptor (assay: cell-based or functional assay).

| EC50 CreLuc hGIPR 0.5% hP | EC50 CreLuc hGIPR 100% hP | Binder |
| --- | --- | --- |
| 0.25 nM | 1.26 nM | B1 |
| 0.16 nM | 0.72 nM | B2 |
| 0.28 nM | 1.23 nM | B3 |
| 0.14 nM | 1.23 nM | B4 |
| 0.58 nM | 0.79 nM | B5 |
| 0.22 nM | 1.21 nM | B6 |
| 0.25 nM | 1.61 nM | B7 |
| 0.26 nM | 0.87 nM | B8 |
| 0.38 nM | 1.58 nM | B9 |
| 0.77 nM | 0.73 nM | B10 |

Each binder was assayed against T2, human neuropeptide Y2 receptor (assay: cell-based or functional assay).

| EC50 CreLuc hNPY2R 0.5% hP | EC50 CreLuc hNPY2R 100% hP | Binder |
| --- | --- | --- |
| 24 nM | 50.1 nM | B1 |
| 13.5 nM | 26.5 nM | B2 |
| 11.9 nM | 31.8 nM | B3 |
| 11.5 nM | 41.7 nM | B4 |
| 18.6 nM | 40.3 nM | B5 |
| 18.9 nM | 58.5 nM | B6 |
| 25.8 nM | 92.6 nM | B7 |
| 21.3 nM | 55.2 nM | B8 |
| 23.6 nM | 86.9 nM | B9 |
| 14 nM | 38.8 nM | B10 |

These binders were tested against human GLP-1 receptor (human, UniProt P43220 24-463) (assay: cell-based or functional assay).

| EC50 CreLuc hGLP1R 0.5% hP | EC50 CreLuc hGLP1R 100% hP | Binder |
| --- | --- | --- |
| 0.28 nM | 6.48 nM | B1 |
| 0.18 nM | 6.5 nM | B2 |
| 0.31 nM | 7.29 nM | B3 |
| 0.21 nM | 8.06 nM | B4 |
| 0.15 nM | 4.76 nM | B5 |
| 0.25 nM | 6.12 nM | B6 |
| 0.2 nM | 8.2 nM | B7 |
| 0.1 nM | 4.72 nM | B8 |
| 0.35 nM | 9.05 nM | B9 |
| 0.14 nM | 4.27 nM | B10 |
